According to the supplement of paper PMC9732359:
± gives the uncertainty stated by the source.

Assay: protein stability index of a GFP-peptide fusion (yeast GPS) (PSI 1-4); higher = more stable; sorted into four equal gates, so the index is relative within each strain
Procedure, shortened: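 Yeast carrying a pooled library were grown to mid-log phase in leucine-free medium. Each library plasmid expresses Cherry and has a tiled 17-residue yeast protein peptide fused downstream of GFP. Cells were sorted into four equal gates by GFP/Cherry ratio, and plasmids from each gate were PCR-amplified, Illumina-sequenced and assigned to strains by barcode. Summing, across gates, the read frequency times the gate number gave each peptide's protein stability index.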

Sequence	protein stability index (doa10∆)	protein stability index (pdr5∆)	protein stability index (san1∆)	protein stability index (ubr1∆)
PKNLSTPSTSSNGEFIP [CSE2]	2.83 ± 0.049	2.87 ± 0.045	2.79 ± 0.039	2.93 ± 0.043
KYCEIMGDNSQLDFTEF [SNF2]	3.16 ± 0.085	3.2 ± 0.11	2.87 ± 0.1	3.29 ± 0.073
RSRNGGATKIVREHYLR [DIS3]	3.21 ± 0.073	3.36 ± 0.083	3.36 ± 0.081	3.2 ± 0.099
LLLDNGFNMKKITTSTE [SRP68]	2.19 ± 0.18	2.22 ± 0.091	3.05 ± 0.17	2.88 ± 0.1
DEKLKTEKLKNDKSEVL [SRB8]	3.09 ± 0.3	3.74 ± 0.21	3.24 ± 0.18	3.33 ± 0.22
ERLMISSDAFEVDVCDK [RET1]	2.31 ± 0.11	2.63 ± 0.05	2.04 ± 0.061	2.21 ± 0.061
TLTKISMLFKTSQKMTS [MCD1]	1.92 ± 0.082	2.83 ± 0.16	2.45 ± 0.13	3.53 ± 0.19
LVKALEDIMVHYDNTTR [RPO21]	1.46 ± 0.061	1.91 ± 0.062	1.32 ± 0.086	1.68 ± 0.072
IPVGDNTVVGISGDISD [PRE4]	2.98 ± 0.13	3.12 ± 0.12	2.85 ± 0.16	3.02 ± 0.12
LFPNELYNVMGINKKKL [RPC31]	3.09 ± 0.27	2.87 ± 0.24	3.29 ± 0.082	3.5 ± 0.26
ININEFALPAGSPKSAT [CDC53]	2.71 ± 0.067	2.76 ± 0.053	2.64 ± 0.07	2.73 ± 0.04
TLENTLKAAFVAIGNTY [RPS2]	1.86 ± 0.16	1.9 ± 0.11	1.72 ± 0.14	1.94 ± 0.091
TEKLSPLASEESLTNSN [YGL100W/SEH1]	3.36 ± 0.13	3.25 ± 0.14	3.12 ± 0.099	3.32 ± 0.075
LRAHTDDSRNPDCKIKI [PRE2]	2.86 ± 0.073	2.92 ± 0.12	2.86 ± 0.085	2.77 ± 0.11
VLKEKDVPAYNVTSFMP [SRB8]	3.11 ± 0.064	3.01 ± 0.051	3.03 ± 0.051	3 ± 0.037
HEIITVGPHFKQANNFL [RPL7A]	2.45 ± 0.062	2.7 ± 0.069	2.98 ± 0.061	2.54 ± 0.053
EYLTLNDFNDLNIDWST [MED2]	2.83 ± 0.06	2.92 ± 0.062	2.6 ± 0.053	2.51 ± 0.043
SLTDVAFFTYDAGVTFN [ECM29]	2.66 ± 0.065	2.34 ± 0.057	2.82 ± 0.063	2.6 ± 0.068
PVENIWADIFAKALDGQ [RPP1A]	3.13 ± 0.1	3.25 ± 0.12	2.49 ± 0.23	2.62 ± 0.1
LCEEYLVNNGQSDLEHD [RPN7]	2.78 ± 0.11	2.63 ± 0.11	2.66 ± 0.081	2.48 ± 0.12
LAALNVWYGLSDGEDGH [SSN2]	3.19 ± 0.12	3.39 ± 0.11	3.04 ± 0.067	3.12 ± 0.077
DIDAVNGAVGKREGKTR [ISW2]	2.94 ± 0.13	3.47 ± 0.11	2.94 ± 0.1	3.4 ± 0.071
EDIVGALRRRVGPSEQN [REC8]	2.28 ± 0.074	1.58 ± 0.052	2.71 ± 0.12	2.43 ± 0.075
YTAVDTAKLQMRRFILG [RPN14]	1.35 ± 0.27	1.47 ± 0.093	1.55 ± 0.3	1.25 ± 0.18
GDLVYARVCTAEKELEA [RRP40]	1.3 ± 0.09	1.51 ± 0.19	1.46 ± 0.19	1.2 ± 0.23
YFRILLPYERHMISQEG [SWI1]	1.37 ± 0.052	1.54 ± 0.047	1.5 ± 0.097	1.6 ± 0.045
IFLQQFLQELLKKVQQQ [SWI1]	2.94 ± 0.098	2.37 ± 0.12	2.56 ± 0.11	2.5 ± 0.13

Sequence	protein stability index (doa10∆)	protein stability index (pdr5∆)	protein stability index (san1∆)	protein stability index (ubr1∆)
AAKLKQTENDLKDIEAR [RPT1]	2.48 ± 0.1	2.53 ± 0.1	2.46 ± 0.19	3.1 ± 0.087
KKLDYVLALKVEDFLER [RPS9A]	1.76 ± 0.092	2.73 ± 0.079	2.08 ± 0.067	2.72 ± 0.072
GRLDRKIEFPLPSEDSR [RPT5]	3.36 ± 0.15	2.91 ± 0.21	2.71 ± 0.24	3.56 ± 0.12
ENDQQDNEEWMNDVINT [LIN1]	3.36 ± 0.076	3.24 ± 0.073	3.19 ± 0.058	2.98 ± 0.071
TAFKATVFFLIRVAETR [YJL039C/NUP192]	1.53 ± 0.087	1.22 ± 0.063	1.12 ± 0.12	1.47 ± 0.048
NGRLNKCGVISPRFNVK [RPS22A]	2.58 ± 0.29	2.85 ± 0.23	2.88 ± 0.2	3.22 ± 0.11
EEVMRIALMGQDNKKIY [ESC2]	2.53 ± 0.07	2.72 ± 0.12	2.2 ± 0.11	2.64 ± 0.051
NEISRNGTMINEVIDKL [PCI8]	2.59 ± 0.067	2.51 ± 0.066	2.48 ± 0.072	2.78 ± 0.065
PVRPVRVRHEDVETVKR [RPC53]	2.9 ± 0.077	2.97 ± 0.048	2.88 ± 0.055	3.04 ± 0.037
KKSKIQLLDIAEFKKEN [LIN1]	1.42 ± 0.1	2.29 ± 0.13	2.44 ± 0.16	2.99 ± 0.11
ISKSLTFSQESGLMVIL [RRI2]	2.23 ± 0.095	2.33 ± 0.11	2.29 ± 0.094	2.27 ± 0.072
QKLWLLECQLFPQGLNI [SSN8]	2.16 ± 0.068	1.92 ± 0.06	1.66 ± 0.13	2.11 ± 0.076
LAVTNLLIISCIIFITF [YML031W/NDC1]	1.34 ± 0.034	1.53 ± 0.034	1.42 ± 0.061	1.55 ± 0.03
NQTNINSLAVRGKDCTV [SCL1]	2.83 ± 0.14	3.26 ± 0.088	3.29 ± 0.068	3.19 ± 0.12
ENDEEFYKNKYSSKPYK [RPN2]	2.4 ± 0.062	2.61 ± 0.097	2.36 ± 0.12	2.19 ± 0.17
ICEPKETLSIFTNVPLN [YJL039C/NUP192]	2.1 ± 0.046	2.24 ± 0.042	2.54 ± 0.05	2.36 ± 0.037
IRGILMASGSTTFTKVA [PRP8]	2.76 ± 0.063	2.02 ± 0.1	2.02 ± 0.16	2.15 ± 0.088
VIIKGFKTYRNETIIDN [SMC3]	2.58 ± 0.22	2.63 ± 0.27	2.94 ± 0.17	–
KDAQKKDIEKLTNEISD [YIL149C/MLP2]	2.54 ± 0.086	2.98 ± 0.07	2.65 ± 0.061	2.49 ± 0.078
LSLHENYPQDEINAVFN [POP1]	2.97 ± 0.067	3.11 ± 0.056	3.05 ± 0.04	3 ± 0.059
LKIYAQIEKKEIKKMII [YCG1]	3.06 ± 0.059	2.8 ± 0.051	2.89 ± 0.057	3.01 ± 0.07
TISILAAPSGNYKQLTL [RRP43]	1.77 ± 0.035	1.94 ± 0.032	1.92 ± 0.058	1.89 ± 0.033
ATAEKLPNIYPSTRCKL [RPT2]	2.14 ± 0.096	1.66 ± 0.091	2.04 ± 0.1	2 ± 0.1
VQKQTRAGQRTRFKAVV [RPS2]	3.04 ± 0.12	3.35 ± 0.14	3.31 ± 0.15	3.23 ± 0.088
QFGNACISLSGVPNYLV [SSN2]	1.59 ± 0.077	2.05 ± 0.093	2.37 ± 0.21	2.21 ± 0.069
IHLQRFDEGTTLLSPKD [RPO21]	2.94 ± 0.14	2.57 ± 0.14	2.91 ± 0.16	2.98 ± 0.2
KVKILEQIDENWSKEDL [SWI3]	3.12 ± 0.079	2.92 ± 0.091	2.88 ± 0.097	2.89 ± 0.091

Sequence	protein stability index (doa10∆)	protein stability index (pdr5∆)	protein stability index (san1∆)	protein stability index (ubr1∆)
YSNSHQMAVHIATDGGR [RET1]	1.98 ± 0.071	2.95 ± 0.086	2.35 ± 0.13	2.73 ± 0.057
EEAAGTKMFEDRREKAE [SMC2]	3.4 ± 0.15	3.36 ± 0.18	3.26 ± 0.089	3.6 ± 0.11
QYYVTQHDKMVDKIFEK [SWI1]	2.96 ± 0.1	2.42 ± 0.06	2.68 ± 0.068	2.84 ± 0.034
MSSAAEKKPASKAPAEK [HTB2]	2.74 ± 0.064	3.3 ± 0.081	2.69 ± 0.08	2.91 ± 0.054
EKINRMIIFLKNYDATD [CSI1]	2.52 ± 0.045	2.34 ± 0.044	2.38 ± 0.046	2.26 ± 0.028
GELLHHPIMETIVNDSN [RPN9]	2.6 ± 0.053	2.77 ± 0.054	2.2 ± 0.08	2.97 ± 0.078
MLLGTDLCSLKPYVDRF [DIS3]	2.62 ± 0.06	2.68 ± 0.066	2.66 ± 0.067	2.92 ± 0.052
NDLQSETKTKKEKIKGL [SMC4]	3.32 ± 0.2	3.25 ± 0.25	–	3.5 ± 0.12
DKNELQQMIITRLKSLL [SIR3]	2.23 ± 0.058	2.04 ± 0.05	2.12 ± 0.063	2.08 ± 0.037
DRKHVAALRTVKSLVDN [RPL9B]	–	2.83 ± 0.22	2.83 ± 0.14	–
VPSFLRPDITMYCRPAP [GRR1]	2.12 ± 0.053	2.39 ± 0.045	2.1 ± 0.057	2.38 ± 0.051
VAMCFVINKLDRLILDL [SNU114]	2.23 ± 0.055	2.24 ± 0.056	2.15 ± 0.096	2.77 ± 0.04
SRGNGGKKVLNKNQLLK [POP1]	1.86 ± 0.14	2.54 ± 0.11	2.53 ± 0.14	3.43 ± 0.11
LYSGLIIDEIITQMRVN [RPC82]	2.12 ± 0.078	2.36 ± 0.094	2.71 ± 0.2	1.58 ± 0.068
GYDINYISKIGEKIDSN [SWI1]	3.2 ± 0.11	2.98 ± 0.085	3.23 ± 0.084	2.91 ± 0.11
LLKDIFANNLKSAISNN [SIR4]	2.46 ± 0.044	2.48 ± 0.042	2.44 ± 0.043	2.44 ± 0.037
LVEAAKLLKIPKFISEA [YDL116W/NUP84]	2.65 ± 0.081	2.61 ± 0.064	2.46 ± 0.088	2.76 ± 0.042
QKLPQYIIQGSNTNDNI [RGR1]	3.14 ± 0.1	3.09 ± 0.098	2.48 ± 0.18	3.25 ± 0.091
LDDPVLNAIVSKNSPAE [YJR042W/NUP85]	2.9 ± 0.16	1.92 ± 0.1	–	2.01 ± 0.078
EQFKMVSMITDHNALPQ [POP1]	3.04 ± 0.18	3.05 ± 0.11	2.28 ± 0.27	2.85 ± 0.13
STRVEFEKLYSDLMKFL [FAS2]	3.45 ± 0.3	3.27 ± 0.2	3.26 ± 0.15	–
KFTIEPGVLPVGIDTHT [SNF2]	2.75 ± 0.12	2.61 ± 0.14	3 ± 0.14	2.73 ± 0.068
MLMSKIGDVDGLIVNPV [POP5]	2.57 ± 0.051	2.58 ± 0.056	2.47 ± 0.041	2.42 ± 0.04
NALEHKYFTESDIPVSE [SSN3]	2.3 ± 0.081	2.75 ± 0.11	2.76 ± 0.082	2.94 ± 0.096
DLEGRANIFRIHSKSMS [RPT1]	–	–	3.21 ± 0.25	–
GLIAARRTGLLRGSQKT [RPL2A]	3.04 ± 0.12	3.08 ± 0.11	2.88 ± 0.11	2.78 ± 0.11
